Data as given in CN113265001A (HUADAO SHANGHAI BIOMEDICAL CO LTD, dated 2021).

Biological target: T1, BCMA抗原 (antigen in solution, Biacore) (UniProt Q02223 1-54, limits assumed)
T1 construct: also called B细胞成熟抗原; CD269
T1 sequence (looked up): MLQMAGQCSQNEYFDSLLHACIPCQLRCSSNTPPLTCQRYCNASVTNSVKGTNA
Assay: Biacore SPR, antibody immobilised on the chip, antigen in the mobile phase

B1: BCMA-12 VHH-mIgG2a Fc 纳米抗体 (Fc fusion)
chain: EVQLVESGGDSVQAGGSLRLSCAVSGYTDSKNLMGWFRQAPGKEREGVAVIYTGGGRPVYADSVKGRFTISQDSAKNTVYLQMNSLKPEDTALYYCAADYLGGAWPFGAYRYWGQGTQVTVSS
notes: also called BCMA VHH B12; BCMA VHH抗体; not shown: mouse IgG2a Fc tag of vector C-4 pCP.Stuffer-mCg2a-FC
Q: Which Kd does the source give for B1 here?
A: 0.0634 nM

Q: What about the koff of the same binder?
A: 0.000429 s⁻¹

Q: And the kon?
A: 6.77e+06 M⁻¹ s⁻¹
